Residue numbers refer to the chain shown, from its start.
What was measured:
Experiment in all cases: ELISA, antibody coated, OX40-ECD.His mutant supernatant; relative to silent alanine substitutions;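 note: captured OX40 mutant protein detected with HRP-labelled anti-His antibody, absorbance read-out, scaled to the mean signal of control mutants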
[1] = biological target: T1, human OX40-ECD.His G131A (human, UniProt P43489 29-214)
T1 construct: extracellular domain; not shown: C-terminal His-tag
T1 sequence (looked up): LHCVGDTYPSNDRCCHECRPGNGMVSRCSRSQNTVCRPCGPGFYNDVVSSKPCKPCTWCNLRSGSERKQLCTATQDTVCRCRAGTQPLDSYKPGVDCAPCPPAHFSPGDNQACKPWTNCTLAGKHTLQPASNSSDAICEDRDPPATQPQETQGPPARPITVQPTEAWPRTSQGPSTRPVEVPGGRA

[2] = biological target: T2, human OX40-ECD.His R41A (human, UniProt P43489 29-214)
T2 construct: extracellular domain; not shown: C-terminal His-tag
T2 sequence (looked up): T1 sequence (looked up) with R13A, A103G

[3] = biological target: T3, human OX40-ECD.His K142A (human, UniProt P43489 29-214)
T3 construct: extracellular domain; not shown: C-terminal His-tag
T3 sequence (looked up): T1 sequence (looked up) with A103G, K114A

[4] = biological target: T4, human OX40-ECD.His P171A (human, UniProt P43489 29-214)
T4 construct: extracellular domain; not shown: C-terminal His-tag
T4 sequence (looked up): T1 sequence (looked up) with A103G, P143A

[5] = biological target: T5, human OX40-ECD.His L89A (human, UniProt P43489 29-214)
T5 construct: extracellular domain; not shown: C-terminal His-tag
T5 sequence (looked up): T1 sequence (looked up) with L61A, A103G

[6] = biological target: T6, human OX40-ECD.His D104A (human, UniProt P43489 29-214)
T6 construct: extracellular domain; not shown: C-terminal His-tag
T6 sequence (looked up): T1 sequence (looked up) with D76A, A103G

[7] = biological target: T7, human OX40-ECD.His Q139A (human, UniProt P43489 29-214)
T7 construct: extracellular domain; not shown: C-terminal His-tag
T7 sequence (looked up): T1 sequence (looked up) with A103G, Q111A

[8] = biological target: T8, human OX40-ECD.His M52A (human, UniProt P43489 29-214)
T8 construct: extracellular domain; not shown: C-terminal His-tag
T8 sequence (looked up): T1 sequence (looked up) with M24A, A103G

[9] = biological target: T9, human OX40-ECD.His N160A (human, UniProt P43489 29-214)
T9 construct: extracellular domain; not shown: C-terminal His-tag
T9 sequence (looked up): T1 sequence (looked up) with A103G, N132A

[10] = biological target: T10, human OX40-ECD.His S159A (human, UniProt P43489 29-214)
T10 construct: extracellular domain; not shown: C-terminal His-tag
T10 sequence (looked up): T1 sequence (looked up) with A103G, S131A

Fold Change [1]: 0.958
Fold Change [2]: 0.958
Fold Change [3]: 0.921
Fold Change [4]: 1.02
Fold Change [5]: 0.992
Fold Change [6]: 0.692
Fold Change [7]: 0.999
Fold Change [8]: 0.977
Fold Change [9]: 0.992
Fold Change [10]: 0.458
B1: 1.134.9-u1-IgG1L (antibody, V domains shown)
VH: QVQLQESGPGLVKPSGTLSLTCAVSGGSISSYNWWSWVRQPPGKGLEWIGEIYHGGNTNYNPSLKSRVTMSVDNSKNQFSLKLSSVTAADTAVYYCARAPGDWGGSPYFDFWGQGTLVTVSS
VL: SSELTQDPAVSVALGQTVRITCQGDNLRTYYASWYQQKPGQAPILLIYGRNKRPSGIPDRFSGSSSGNTASLTITGAQAEDEAAYYCNSRDSSGNPVVFGGGTKLTVL
notes: fully human IgG1, lambda

Source: patent publication US20210171647A1 (WUXI BIOLOGICS SHANGHAI, published 2021)
